Experimental data from the supplement of paper PMC9170038.

Test system: MS2 coat protein
Test: apparent KD of MS2 coat protein; designed switch direction (-1 OFF switch, 1 ON switch): 1; higher = weaker reporter binding
In short: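 An oligonucleotide input, 200 uM small-molecule ligand, or no input was present during titration of SNAP-549-labelled MS2 coat protein, which was doubled from 0.7 or 1.5 nM to 3 µM. Designed RNA switches had been transcribed on Illumina chips by stalled E. coli RNA polymerase. Apparent KD per design is the median over clusters of curves fitted to normalised cluster fluorescence.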

[1] = input ligand: microRNA oligo, concentration not stated
[2] = Eterna round: R95, input ligand: FMN 200 uM
[3] = Eterna round: R95, input ligand: microRNA oligo, concentration not stated
[4] = Eterna round: R95, input ligand: none

| Sequence | apparent KD of MS2 coat protein (input ligand: FMN 200 uM) [nM] | apparent KD of MS2 coat protein [1] [nM] | apparent KD of MS2 coat protein (input ligand: none) [nM] | apparent KD of MS2 coat protein [2] [nM] | apparent KD of MS2 coat protein [3] [nM] | apparent KD of MS2 coat protein [4] [nM] |
| --- | --- | --- | --- | --- | --- | --- |
| UUAUCUCAGACAUGAGGAUCACCCAUGUGGUUAUGACUUAGACAGGAUAUAGUAGUAUCGAAAUACUAGAAGGGUCAUUUUAUU [JR_SSNG3_Sub021] (Eterna round: R96, puzzle: Same State NG 3) | 73.4 | 97.5 | 143 | – | – | – |
| UUAUCUCAGACAUGAGGAUCACCCAUGUUUUUUUGUCUUUGACAGGAUAUAGUUGUUUCGUUUUACUAGAAGGGUCAUUUUAUU [JR_SSNG3_Sub024] (Eterna round: R96, puzzle: Same State NG 3) | 20.3 | 20.8 | 29.8 | – | – | – |
| UUAUCUCUUACAUGAGGAUCACCCAUGUUUUUAUGUCUUAGACAGGAUAUAGUAGUCUCGUUUUACUAGAAGGGUCUUUUUAUU [JR_SSNG3_Sub019] (Eterna round: R96, puzzle: Same State NG 3) | 28.9 | 39.8 | 51.4 | – | – | – |
| UUAUUAUUUACAUGAGGAUCACCCAUGUUUUUAUGUCAGAGAUAGGAUAUAGUAGUCUCGUUUUACUAGAAGGAUCUUUUUAUU [JR_SSNG3_Sub084] (Eterna round: R96, puzzle: Same State NG 3) | 13.4 | 15.8 | 19.9 | – | – | – |
| UUAUUAUUUACAUGAGGAUCACCCAUGUUUUUAUGUCAGAGAUAGGAUAUAGUUUUCUCGUUUUUCUAGAAGGAUCUUUUUAUU [JR_SSNG3_Sub085] (Eterna round: R96, puzzle: Same State NG 3) | 18.6 | 17 | 22.8 | – | – | – |
| UUCCUACAUGAGGAUCACCCAUGUGACGCCUCGAUAGGAUAUGCGUGUGCCUUGGCGCAUGCAGAAGGGUUGUAGC [JL Aveso mod 9] (puzzle: Same State 1) | – | – | – | 39.2 | 34.8 | 37.5 |
| UUCUCACAUGAGGAUCACCCAUGUGAGCCUCUGUGAGGAUAUCCGACAUAAUUAAGUGAAGGAGAAGGUACACGAG [Malean] (puzzle: Same State 1) | – | – | – | 24.8 | 30.2 | 19.5 |
| UUCUUACAUGAGGAUCACCCAUGUGUUGUCGUGGGAGGAUAUCCUUGUUCGGUGGCGUUGGGAGAAGGCCUAUGUU [× ×•×ª×• ×ž×“×™× ×” × ×—×ª-20] (puzzle: Same State 1) | – | – | – | – | 40.4 | – |
| UUGCUCGUGUGAGGAUAUGCCGCCGUUUCGGCUGCAGAAGGUACUAUAAUACAUGAGGAUCACCCAUGUCUCUGUUGUUUCGUG [salish99_SSNG1_r04_932] (Eterna round: R96, puzzle: Same State NG 1) | – | 23.7 | – | – | – | – |
| UUGGUGUAGAUACAGGAUAUGUUGAUUGUAACAUGAGGAUCACCCAUGUAUCUAUGAGAUUAAAUGCAGAAGGGUGCACAUCACU [salish99_ss2_r3_090] (puzzle: Same State 2) | – | – | – | 209 | 92.9 | 276 |
| UUGUAUCGAAAAGGAUAUCAUGGGCAACGGUACUGAGAAGGUUUCGAGCUCGAACGAGCAACAUGAGGAUCACCCAUGUCCGAG [Eternabot solution 50] (Eterna round: R96, puzzle: Same State NG 1) | 337 | 280 | 212 | – | – | – |
| UUGUUUCGUCAUUAACAUGAGGAUCACCCAUGUCUUGGCCCAGAGGAUAUGCAUGUUUGAUUGUAGCAGAAGGCUGAUUGUUGU [JR_SSNG3_Sub031] (Eterna round: R96, puzzle: Same State NG 3) | 25.9 | 34.9 | 42.5 | – | – | – |
| UUUAGUUGCGGGCAGGAUAUGUAUUAAAAUACAUGAGGAUCACCCAUGUGAGGUCAUAAAGACCUACAGAAGGGCCAAUCGCGAC [Laonerce - 16] (puzzle: Same State 2) | – | – | – | 16.5 | 64.8 | 66.2 |
